Reference: patent US9289492B2, “Collecting ovarian cancer stem cells from ovarian cancer cells” (The General Hospital Corporation, priority 2007, dated 2016)
Read-outs that look alike come from different tables or passages of the source.

How the values were obtained:
[1] = system: 4306 cells; assay: Hoechst 33342 side population flow cytometry with verapamil, 4306; type: cell-based, mouse; settings: 4306, verapamil 25-50 μg/ml, Hoechst 33342 flow cytometry
Experimental: (§1) Flow cytometry was performed in the Department of Pathology and Center for Regenerative Medicine Flow Cytometry Laboratory according to their published protocols (36). Mouse and human ovarian cancer SP sorting and immunophenotyping were performed as described in Supporting Methods, which is published as supporting information on the PNAS web site.
(§2) SP cells were identified and electronically gated on a Digital Vantage cell sorter (Becton Dickinson) after excitation of the Hoechst dye with 150 mW of 350 nm UV light. SP fluorescence emissions were directed toward a 610-nm dichroic filter and captured simultaneously through both a blue (450-nm) band-pass and a red (675-nm) long-pass filter on a linearly amplified fluorescence scale.

[2] = system: MOVCAR 7 cells; assay: Hoechst 33342 side population flow cytometry with verapamil, MOVCAR 7; type: cell-based, mouse; settings: MOVCAR 7, verapamil 25-50 μg/ml, Hoechst 33342 flow cytometry
Experimental: as §1, §2

[3] = system: MOVCAR 7 NSP cells; assay: MTT proliferation assay, MOVCAR 7 NSP cells; type: cell-based, mouse; settings: for inhibition at 0.004 µM: Mus musculus, read-out: inhibition (MTT growth inhibition)
Experimental: (§3) MTT assay was used to assess proliferation inhibition. MOVCAR 7 and 4306 cells were harvested, sorted for SPs and NSPs, and plated in the inner wells of 96-well plates at 1,000 cells per well in 200 μl of medium per well. […] At day 5 or 7 of incubation, cell viability was quantified by measuring mitochondrial activity (38) on an ELISA plate reader at an absorbance of 550 nm to generate an OD proportional to the relative abundance of live cells in a given well.
(§4) Statistical Analysis. In MTT assays, MIS-, doxorubicin-, and paclitaxel-treated and untreated samples were analyzed by using the univariant two-tailed Student t test, with P ≦0.05conferring statistical significance. All experiments were performed in triplicate. In ovarian somatic stem cell studies, all p-values were calculated with the use of two-tailed student's t-test. Differences with p-values less than 0.05 were considered significant.

[4] = system: MOVCAR 7 SP cells; assay: MTT proliferation assay, MOVCAR 7 SP cells; type: cell-based, mouse; settings: for inhibition at 0.004 µM: Mus musculus, 4 nM drug, compared with vehicle-treated controls, read-out: inhibition (MTT growth inhibition)
Experimental: as §3, §4

[5] = target: T1, BCRP1 transporter (Homo sapiens, UniProt Q9UNQ0); settings: reference 23; cited from earlier work
T1 sequence (Q9UNQ0 1-655): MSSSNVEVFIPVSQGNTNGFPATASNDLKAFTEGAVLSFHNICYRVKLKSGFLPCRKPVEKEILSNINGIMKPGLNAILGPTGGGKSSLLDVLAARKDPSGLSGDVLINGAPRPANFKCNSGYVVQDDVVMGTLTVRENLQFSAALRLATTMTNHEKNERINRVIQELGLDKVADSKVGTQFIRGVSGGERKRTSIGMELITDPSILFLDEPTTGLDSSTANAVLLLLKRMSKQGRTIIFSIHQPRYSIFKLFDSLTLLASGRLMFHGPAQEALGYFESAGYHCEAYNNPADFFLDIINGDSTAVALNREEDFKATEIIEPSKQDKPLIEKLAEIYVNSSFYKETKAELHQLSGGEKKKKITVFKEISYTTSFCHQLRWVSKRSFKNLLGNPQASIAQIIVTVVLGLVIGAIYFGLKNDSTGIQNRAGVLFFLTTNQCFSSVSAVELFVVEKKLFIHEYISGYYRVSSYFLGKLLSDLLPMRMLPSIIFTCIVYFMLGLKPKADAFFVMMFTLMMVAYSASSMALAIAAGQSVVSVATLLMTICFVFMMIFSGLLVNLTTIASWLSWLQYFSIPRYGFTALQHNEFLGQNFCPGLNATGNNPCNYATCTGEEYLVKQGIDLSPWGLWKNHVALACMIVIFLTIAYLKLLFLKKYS

[6] = Organ culture bioassay for MIS; settings: purified recombinant human MIS
Experimental: The human MIS gene was transfected into CHO cells, amplified, purified, and maintained in a dedicated facility in the Pediatric Surgical Research Laboratories for use in this study as described in ref.39. MIS levels were measured by using human MIS-specific ELISA (40). MIS was purified by a combination of lectin affinity chromatography and FPLC anion-exchange chromatography (39).

[7] = system: 4306 SP cells; assay: MTT proliferation assay, 4306 SP cells; type: cell-based, mouse
Experimental: as §3, §4

[8] = system: human anchorage-independent Mullerian tumors; settings: soft agarose, reference 34; cited from earlier work
[9] = system: MOVCAR 7; settings: in vitro, reference 25; cited from earlier work
[10] = system: OVCAR 8 cells; settings: references 25, 35; cited from earlier work
[11] = system: MOVCAR 7; settings: in vivo, reference 25; cited from earlier work
[12] = system: MOVCAR 8 cells; settings: references 25, 35; cited from earlier work
[13] = 4 nM drug, versus vehicle-treated controls

Molecule: COc1ccc(CCN(C)CCCC(C#N)(c2ccc(OC)c(OC)c2)C(C)C)cc1OC (stereo not drawn) [Verapamil, verapamil]
- elimination of the SP [1]: effectively eliminated the SP
- elimination of the SP [2]: effectively eliminated the SP

Molecule: COc1cccc2c1C(=O)c1c(O)c3c(c(O)c1C2=O)C[C@@](O)(C(=O)CO)C[C@@H]3O[C@H]1C[C@H](N)[C@H](O)[C@H](C)O1 [doxorubicin]
- inhibition at 0.004 µM [3, 13]: 81%
- inhibition at 0.004 µM ([4]; MOVCAR 7 SP cells): 30%
- substrate of the BCRP1 transporter [5]: is a substrate

Molecule: CC(=O)O[C@H]1C(=O)[C@@]2(C)[C@H]([C@H](OC(=O)c3ccccc3)[C@]3(O)C[C@H](OC(=O)[C@H](O)[C@@H](NC(=O)c4ccccc4)c4ccccc4)C(C)=C1C3(C)C)[C@]1(OC(C)=O)CO[C@@H]1C[C@@H]2O [paclitaxel]
- inhibition (MTT growth inhibition) [3, 13]: 88%
- inhibition at 0.004 µM [3, 13]: 83%
- inhibition at 0.004 µM ([4]; MOVCAR 7 SP cells): 85%

B1: MIS: Recombinant human Mullerian Inhibiting Substance protein (SEQ ID NO: 16), produced in CHO cells and purified (protein, listed as Homo sapiens)
chain: MRDLPLTSLALVLSALGALLGTEALRAEEPAVGTSGLIFREDLDWPPGSPQEPLCLVALGGDSNGSSSPLRVVGALSAYEQAFLGAVQRARWGPRDLATFGVCNTGDRQAALPSLRRLGAWLRDPGGQRLVVLHLEEVTWEPTPSLRFQEPPPGGAGPPELALLVLYPGPGPEVTVTRAGLPGAQSLCPSRDTRYLVLAVDRPAGAWRGSGLALTLQPRGEDSRLSTARLQALLFGDDHRCFTRMTPALLLLPRSEPAPLPAHGQLDTVPFPPPRPSAELEESPPSADPFLETLTRLVRALRVPPARASAPRLALDPDALAGFPQGLVNLSDPAALERLLDGEEPLLLLLRPTAATTGDPAPLHDPTSAPWATALARRVAAELQAAAAELRSLPGLPPATAPLLARLLALCPGGPGGLGDPLRALLLLKALQGLRVEWRGRDPRGPGRAQRSAGATAADGPCALRELSVDLRAERSVLIPETYQANNCQGVCGWPQSDRNPRYGNHVVLLLKMQARGAALARPPCCVPTAYAGKLLISLSEERISAHHVPNMVATECGCR
- regression in organ culture bioassay [6]: causes regression
- inhibition by MIS (MTT) ([7]; 4306 SP cells after sort 2, 10 μg/ml MIS): 60%
- inhibition by MIS (MTT) ([7]; 4306 SP cells after sort 3, 10 μg/ml MIS, not significant): 17%
- inhibition by MIS (MTT) ([7]; 4306 SP cells, first sort, 10 μg/ml MIS, vs. vehicle control): 37%
- inhibition by MIS (MTT) ([3]; first sort, 10 μg/ml MIS, versus vehicle): 93%
- inhibition of anchorage-independent tumors [8]: inhibits
- inhibition of MOVCAR 7 [9]: inhibit
- inhibition of OVCAR 8 cells [10]: inhibits
- inhibition of MOVCAR 7 [11]: inhibit
- inhibition of MOVCAR 8 cells [12]: inhibits
- inhibition by MIS (MTT) ([4]; MOVCAR 7 SP cells after sort 2, 10 μg/ml MIS): 93%
- inhibition by MIS (MTT) ([4]; MOVCAR 7 SP cells after sort 3, 10 μg/ml MIS): 94%
- inhibition by MIS (MTT) ([4]; MOVCAR 7 SP cells, first sort, 10 μg/ml MIS, versus vehicle): 86%
